Usually kon stands for the rate constant with which the complex forms. Read a high kon as fast association.

Data on 1 molecule can be found in patent US20230167169A1 (ATRECA, published 2023).

This test concerns the target T1, (NANP)6 (Plasmodium falciparum, biotinylated for the BLI assay (site not stated)).
T1 construct: Used in both the BLI and SPR assays
T1 peptide: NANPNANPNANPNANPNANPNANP
As to the kind of experiment: BLI; biotinylated target on streptavidin sensor; antibody at 5 µg/mL. In general terms: BLI is a label-free optical method that tracks binding on a fibre tip over time.

B1: AB-000224 (antibody, V domains shown)
VH: EVQLVESGGGLVQPGRSLRLPCTASGFSFGDHAMSWVRQAPGKGLEWVGFIRKTTYGATTHYAAAVRGRFTISRDDSKSIVYLQMNSLKTEDTAVYFCTRVQLDYGPGYQYYGMDVWGQGTTVTVSS
VL: ESVLTQPPSVSGAPGQRVTISCTGMNSNIGAGYDVYWYQQLPGRAPKLLIYGNSNRPSGVPDRFSGSRSGTSASLAITGLQAEDEADYYCQSYDTSLNGWAFGGGTKLTVLG
In turn, B1 registered an association rate constant (kon) of 275000 M⁻¹ s⁻¹.
